US20040054131A1

Biological target: FGF receptor (FGFR) on Swiss 3T3 cells
Experiment: cell-based or functional assay

For basic FGF (ligand), the EC50 of mitogenesis (BrdU incorporation) in Swiss 3T3 cells with 15 U/ml heparin was 0.14 nM.
